Among the data in PMC2229591 are concentration that gives half-maximum binding and stoichiometry N values, retold here.

In experiment [1] the target is C0 fragment of cardiac myosin binding protein C (MyBP-C) (human). Put plainly: pull-down + co-IP.
In experiment [2] the target is filamentous actin (rabbit muscle) (rabbit) (UniProt P68135). Put plainly: co-sedimentation. Particulars: scale: actin per fragment.

Regarding “filamentous actin (rabbit muscle) (from UniProt P68135 1-377) (natural protein)”, the concentration that gives half-maximum binding in experiment [1] was less than 10 µM.
For the substance “C0C2 fragment of cardiac MyBP-C (domain or fragment)”, in experiment [2], the stoichiometry N was 7.

Broadly, the stoichiometry N is the number of molecules, sites or subunits per partner or assembly.
